Substrate: O=[N+]([O-])c1ccccc1O[C@@H]1O[C@H](CO)[C@H](O)[C@H](O)[C@H]1O
Assay: purified protein
Type: biochemical, Paracoccus sp. 32d
Details: 20 °C, 20 mM sodium phosphate pH 7.3, apparent Km, also measured at 10 and 30 °C

B1: BgaL; Paracoccus sp. 32d β-D-galactosidase (Paracoccus sp. 32d) (protein)
chain: MRVTQKLNHGWIFAEGAADPATPLAGETVTLPHNAVDLPLSYFDETSYQRAFTYQRVIAWDDAWQGRRVQLRFDGAMADNVVWVNGVQVVAHPDGYTPFVADLTDHLRPGDNLVTVRIDGSENPAIPPFGAQIDYLTYAGIYRDVWLMVLPERHLTNARILTPDALSDAKTVVIRPEVTAPGPVRARLLDGDREIAATEGEGELTLAGLTGLSLWSTDNPQLYTVELTLPDSGDVTTHRFGFRTAEWTPQGFLLNGQPMKLRGLNRHQSWAHQGYAAGRHAQERDAEIVRHDLCCNMVRTSHYPQSTWFLDRCDEIGLLVFEEIPGWQHIGDQAWQDRSVDNVRAMITRDWNHPSIVIWGVRINESPDNHDFYVRTNALARELDPTRAIGGVRCITDSEMLEDVYTMNDFILDESELPLINRPRTALRPTEEVTGIKKPVPYLVTEYNGHMFPTKAQDPELRQMEHVIRHLEVLNAAHGDPAISGCIGWCMFDYNTHKDFGAGDRICHHGVMDIWREPKFAAHAYGSQKPPSEGIVMEPVTFWARGERNIGGVLPLIVLTNCDEVEFECAGVTRRVGPDRERFPHLPRPPVIIDHRHISAEELGQWGMSWHPGRITGWLNGEQVALREYVADPLPTTLQIAPDRDTLPADGDIDLRVMLRALDQVGNRLPFLDAGIAVTVDGPARLIGPDLRMLQGGTTGMLLRLTGDAGTIRITARHPQFPEAVATVTVG
notes: E. coli LMG194, pBAD/Myc-His A with native stop codon (no tag), ion exchange purified; homodimer 161 kDa; GH2
- Km: 1.18 ± 0.06 mM
- kcat: 138 ± 2.19 s⁻¹
- kcat/Km: 117000 M⁻¹ s⁻¹

Reference: PMC3268748, “A novel cold-active β-D-galactosidase from the Paracoccus sp. 32d - gene cloning, purification and characterization” (Microbial Cell Factories, 2011)
